Experimental data from doi:10.1101/596171.

Molecular target: T1, HIS-GST-Nxf3 (66-336), RRM-LRR domain (Drosophila melanogaster, UniProt Q8IQK4 66-336)
T1 sequence: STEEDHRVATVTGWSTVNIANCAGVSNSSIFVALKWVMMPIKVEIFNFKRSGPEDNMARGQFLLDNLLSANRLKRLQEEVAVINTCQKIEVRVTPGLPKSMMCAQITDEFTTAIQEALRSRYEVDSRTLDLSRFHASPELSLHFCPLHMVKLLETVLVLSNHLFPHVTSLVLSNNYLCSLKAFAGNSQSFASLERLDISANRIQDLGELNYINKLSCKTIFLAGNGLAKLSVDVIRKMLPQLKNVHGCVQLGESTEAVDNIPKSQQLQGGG
Assay: EMSA

CUCAUCUUGGUCGUACGCGGAAUAGUUUAAACUGU (ssRNA) [35 nt ssRNA]
binding result: binds
